Assay results reported in patent publication US20210072250A1.
Positions count from the first letter of the chain named. Blank lines part the entries; values can stand above or below the binder they belong to.

Experiments:
P1-Hpu [1] = assay: SPR
P1-deoxy [2] = assay: SPR
P1-Hpu [3] = assay: SPR, ratio of KD values
P1-deoxy [4] = assay: SPR, ratio of KD values
P2-Hpu [5] = assay: SPR, ratio of KD values
P2-deoxy [6] = assay: SPR, ratio of KD values
P4-Hpu [7] = assay: SPR, ratio of KD values
P5-Hpu [8] = assay: SPR, ratio of KD values
P1-Hpu [9] = assay: SPR, Biacore T200, peptide captured, Fab flowed
P1-deoxy [10] = assay: SPR, Biacore T200, peptide captured, Fab flowed
P2-Hpu [11] = assay: SPR, Biacore T200, peptide captured, Fab flowed
P2-deoxy [12] = assay: SPR, Biacore T200, peptide captured, Fab flowed
P4-Hpu [13] = assay: SPR, Biacore T200, peptide captured, Fab flowed
P5-Hpu [14] = assay: SPR, Biacore T200, peptide captured, Fab flowed
P3-Hpu [15] = assay: SPR, ratio of KD values
P3-Hpu [16] = assay: SPR, Biacore T200, peptide captured, Fab flowed

- Kd (P1-Hpu [1]): 18 nM
- Kd (P1-deoxy [2]): 20 nM
- Fold improvement in KD over parent FabHpu98 (P1-Hpu [3]): 7.9 fold
- Fold improvement in KD over parent FabHpu98 (P1-deoxy [4]): 6.9 fold
- Fold improvement in KD over parent FabHpu98 (P2-Hpu [5]): 2.6 fold
- Fold improvement in KD over parent FabHpu98 (P2-deoxy [6]): 1.8 fold
- Fold improvement in KD over parent FabHpu98 (P4-Hpu [7]): 2.5 fold
- Fold improvement in KD over parent FabHpu98 (P5-Hpu [8]): 2.5 fold
- Kd (P1-Hpu [9]): 15 nM
- Kd (P1-deoxy [10]): 17 nM
- Kd (P2-Hpu [11]): 78 nM
- Kd (P2-deoxy [12]): 86 nM
- Kd (P4-Hpu [13]): 91 nM
- Kd (P5-Hpu [14]): 70 nM
B1: FabHpu98.61 (Fab)
heavy: QSVEESGGRLVTPGTPLTLTCTVSACSLYHCTMNWVRQAPGKGLEWIGDIYTDGNTYYANWAKGRFTISKTSTTVDLKITSPTTEDTATYFCARDSWDASSYYGLDLWGQGTLVTVSSGQPKGPSVFPLAPCCGDTPSSTVTLGCLVKGYLPEPVTVTWNSGTLTNGVRTFPSVRQSSGLYSLSSVVSVTSSSQPVTCNVAHPATNTKVDKTVAPSTCSKPT
light: AIKMTQTPSSVSAAVGGTVTINCQASEDIKRYLAWYQQKPGQPPKLLIYAASKLASGVSSRFKGSGSGTEYTLTISGVQCDDAATYYCQQGYTSSNVNNAFGGGTEVVVKGDPVAPTVLIFPPAADQVATGTVTIVCVANKYFPDVTVTWEVDGTTQTTGIENSKTPQNSADCTYNLSSTLTLTSTQYNSHKEYTCKVTQGTTSVVQSFNRGDC

- Kd (P1-Hpu [9]): 192 nM
- Kd (P2-Hpu [11]): 157 nM
- Kd (P4-Hpu [13]): 541 nM
- Kd (P5-Hpu [14]): 96 nM
B2: FabHpu24 (Fab)
heavy: QEQLKESGGRLVAPGTPLTLTCTVSGFDISDYAMIWVRQAPGKGLEWIGIIYGGSNKLAYAKWAKGRFTISRTSTTVDLKITSPTTEDTATYFCARGYGSMDGYDRLNLWGQGTLVTVSSGQPKGPSVFPLAPCCGDTPSSTVTLGCLVKGYLPEPVTVTWNSGTLTNGVRTFPSVRQSSGLYSLSSVVSVTSSSQPVTCNVAHPATNTKVDKTVAPSTCSKPT
light: AAVLTQTPSPVSAAVGGTVTISCQSSETVYRGDWLSWFQKKPGQPPKLLIYDASYLASGVSSRFSGSGSGTHFTLTISGVQCDDAATYYCLGGYYDDADDTFGGGTEVVVKGDPVAPTVLIFPPAADQVATGTVTIVCVANKYFPDVTVTWEVDGTTQTTGIENSKTPQNSADCTYNLSSTLTLTSTQYNSHKEYTCKVTQGTTSVVQSFNRGDC

- Fold improvement in KD over parent FabHpu24 (P1-Hpu [3]): 32 fold
- Fold improvement in KD over parent FabHpu24 (P2-Hpu [5]): 12 fold
- Fold improvement in KD over parent FabHpu24 (P3-Hpu [15]): > 5 fold
- Fold improvement in KD over parent FabHpu24 (P4-Hpu [7]): 17 fold
- Fold improvement in KD over parent FabHpu24 (P5-Hpu [8]): 13 fold
- Kd (P1-Hpu [9]): 6 nM
- Kd (P2-Hpu [11]): 13 nM
- Kd (P3-Hpu [16]): 186 nM
- Kd (P4-Hpu [13]): 32 nM
- Kd (P5-Hpu [14]): 7 nM
B3: FabHpu24.B (Fab)
heavy: B2 heavy with G54V, S55I, K57D
light: B2 light with Q24R, S26R, E27Q, T28R, R31L, Y55F, L56R, A57G, S58D
